Data on one substance can be found in paper PMC11940188.

Assay [1] deals with Rho13 (Rhodonellum psychrophilum). The experiment in a line: SEC; Superdex-200 Increase, 0.5 mL/min, Ni-NTA eluates after PD-10 desalting; 100 mM HEPES, 150 mM NaCl, 2 mM CaCl2 pH 6.5 or 50 mM MOPS, 50 mM NaCl, 2 mM CaCl2 pH 7.5; calibrated with lysozyme, carbonic anhydrase and BSA; self-association, monomer and dimer. A general note: Size exclusion chromatography separates by hydrodynamic size, large species first.

For assay [2] the target is unchanged. Nature of the assay: SAXS; nominal 1 mg/mL enzyme (Ika2 1.00, Rho13 0.94, I3C6 0.87 mg/mL by Abs280), 25 °C, 1800 s; indirect Fourier transformation and fits to AlphaFold models; self-association.
For assay [3] the target is unchanged. The experiment in a line: SAXS; nominal 0.5 mg/mL enzyme (Ika2 0.51, Rho13 0.46, I3C6 0.46 mg/mL by Abs280), 25 °C, 1800 s; indirect Fourier transformation and fits to AlphaFold models; self-association.

For Rho13 (enzyme), in assay [1], the share of the combined peak area, dimer peak worked out at 26% and the stoichiometry N was found to be 2. In assay [2], this substance came in with a dimer concentration in the SAXS model fit of 0.69 mg/mL, a monomer concentration in the SAXS model fit of 0.03 mg/mL, a n-mers (SAXS model fit) of 1.96 and a n-mers (indirect Fourier transformation) of 1.58. Moreover, in assay [3], the dimer concentration in the SAXS model fit worked out at 0.29 mg/mL, the monomer concentration in the SAXS model fit was found to be 0.06 mg/mL, the n-mers (SAXS model fit) worked out at 1.83 and the n-mers (indirect Fourier transformation) is 1.38.

For orientation: stoichiometry N means a count of units in the complex or per binding partner.
